Experimental data reported in article doi:10.1101/2025.09.24.678203 (bioRxiv, 2025).

T1: T. brucei canonical histone H2A (T. brucei brucei, UniProt Q57YA3 2-134)
T1 construct: Canonical histone H2A of Trypanosoma brucei brucei, Tb927.7.2820, pET21a plasmid from the Janzen lab; also called Tb H2A
T1 sequence: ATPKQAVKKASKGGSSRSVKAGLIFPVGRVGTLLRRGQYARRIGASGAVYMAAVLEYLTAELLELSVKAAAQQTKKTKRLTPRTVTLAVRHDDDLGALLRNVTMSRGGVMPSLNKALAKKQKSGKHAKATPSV

B1: T. brucei canonical histone H4 (natural protein)
chain: not shown
notes: Canonical histone H4 of Trypanosoma brucei brucei, Tb927.5.4170, pET21a plasmid from the Janzen lab; also called Tb H4
B2: T. brucei canonical histone H2B (natural protein, T. brucei brucei)
chain: ATPKSTPAKTRKEAKKTRRQRKRTWNVYVSRSLRSINSQMSMTSRTMKIVNSFVNDLFERIAAEAATIVRVNRKRTLGARELQTAVRLVLPADLAKHAMAEGTKAVSHASS
notes: Canonical histone H2B of Trypanosoma brucei brucei, Tb927.10.10480, pET21a plasmid from the Janzen lab; also called Tb H2B

What was measured:
[1] = molecular target: T2, T. brucei canonical histone H3 (T. brucei brucei, UniProt Q4GYX7 2-133); experiment: in vitro reconstitution of histone octamers and nucleosomes (SEC, native PAGE, SDS-PAGE); purified histones combined at a 1.2:1.2:1:1 H2A:H2B:H3(V):H4(V) molar ratio, dialysed into 2 M NaCl Octamer Buffer, octamers purified on Superdex200; wrapped with Widom 601 145 bp, Widom 603 177 bp or Widom 603 193 bp DNA by salt gradient dialysis; checked by native and SDS PAGE; conditions: both partners purified
T2 construct: Canonical histone H3 of Trypanosoma brucei brucei, Tb927.1.2430, pET21a plasmid from the Janzen lab; also called Tb H3

[2] = molecular target: T1, T. brucei canonical histone H2A; experiment: cryo-EM structure; H3.V-H4.V NCP (H2A, H2B, H3.V, H4.V) wrapped with Widom 601 145 bp DNA, crosslinked with 0.05% glutaraldehyde, separated by SEC; grids in 10 mM Tris pH 8.0, 30 mM NaCl, 1 mM EDTA, 1 mM DTT; global resolution 3.2 Å; conditions: both partners purified

Binder | binding result [1] | binding result [2]
B1 | binds | –
B2 | – | binds
